According to paper PMC12392934, “TCP19 regulates nitrogen‐dependent sheath blight susceptibility by modulating nitrogen uptake and signalling in rice”:

Target: T1, GST-PIL15 (Oryza sativa, UniProt Q0JNI9 1-637)
T1 sequence: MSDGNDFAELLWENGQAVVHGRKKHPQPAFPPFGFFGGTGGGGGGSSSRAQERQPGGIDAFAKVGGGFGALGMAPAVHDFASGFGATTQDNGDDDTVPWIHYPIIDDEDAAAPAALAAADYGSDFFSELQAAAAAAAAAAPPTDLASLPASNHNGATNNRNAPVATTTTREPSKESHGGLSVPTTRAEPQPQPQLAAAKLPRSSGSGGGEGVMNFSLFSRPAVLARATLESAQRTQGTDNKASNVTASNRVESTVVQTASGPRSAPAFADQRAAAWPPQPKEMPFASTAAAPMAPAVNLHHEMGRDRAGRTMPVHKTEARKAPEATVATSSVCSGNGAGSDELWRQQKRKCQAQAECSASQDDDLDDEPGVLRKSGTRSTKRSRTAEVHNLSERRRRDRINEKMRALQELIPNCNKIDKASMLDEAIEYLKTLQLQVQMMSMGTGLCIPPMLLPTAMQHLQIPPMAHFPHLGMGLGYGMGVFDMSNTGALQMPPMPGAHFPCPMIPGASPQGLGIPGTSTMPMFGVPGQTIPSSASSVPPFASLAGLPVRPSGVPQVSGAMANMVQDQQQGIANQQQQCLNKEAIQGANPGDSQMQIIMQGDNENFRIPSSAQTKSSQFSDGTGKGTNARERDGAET
Assay: EMSA; Chemiluminescent EMSA kit (Thermo Fisher); buffer, salt, pH and temperature not stated
Settings: protein: recombinant; tags: N-terminal GST (pGEX-5X-1); chain copies: 2; label: biotin (ends); blunt

B1: pDEP1-PBE (dsDNA)
DNA 1: GATGCACACATGAAGATCGT
DNA 2: ACGATCTTCATGTGTGCATC
B1: binds.

B2: pAMT1;2-PBE (dsDNA)
DNA 1: ACCAAAACACATGAAATCCT
DNA 2: AGGATTTCATGTGTTTTGGT
B2: binds.

B3: pNRT1.1B-PBE (dsDNA)
DNA 1: ACACACACATGTGTTGTAAT
DNA 2: ATTACAACACATGTGTGTGT
B3: binds.
